Fold increase of the DSP-His signal on HEK293T cells with ectopic ENG against cells without data for 1 substance are collected here from publication PMC11910139.

The test has as its target ENG-HA (endoglin, HA-tagged, ectopically expressed) (UniProt P17813). Description: flow cytometry on cells; cells (HEK293T with or without ENG overexpression, DPSCs with or without ENG knockdown or anti-ENG pretreatment, HUVECs) incubated with His-tagged DSP (0.5 μg/ml) or BSA at 37 °C for 1 h; detected with anti-His-tag mAb-Alexa Fluor 488 and PE anti-human ENG antibody. (Flow cytometry measures light scatter and fluorescence of single cells or particles in a stream.)
Sequence of UniProt P17813 (P17813 26-658): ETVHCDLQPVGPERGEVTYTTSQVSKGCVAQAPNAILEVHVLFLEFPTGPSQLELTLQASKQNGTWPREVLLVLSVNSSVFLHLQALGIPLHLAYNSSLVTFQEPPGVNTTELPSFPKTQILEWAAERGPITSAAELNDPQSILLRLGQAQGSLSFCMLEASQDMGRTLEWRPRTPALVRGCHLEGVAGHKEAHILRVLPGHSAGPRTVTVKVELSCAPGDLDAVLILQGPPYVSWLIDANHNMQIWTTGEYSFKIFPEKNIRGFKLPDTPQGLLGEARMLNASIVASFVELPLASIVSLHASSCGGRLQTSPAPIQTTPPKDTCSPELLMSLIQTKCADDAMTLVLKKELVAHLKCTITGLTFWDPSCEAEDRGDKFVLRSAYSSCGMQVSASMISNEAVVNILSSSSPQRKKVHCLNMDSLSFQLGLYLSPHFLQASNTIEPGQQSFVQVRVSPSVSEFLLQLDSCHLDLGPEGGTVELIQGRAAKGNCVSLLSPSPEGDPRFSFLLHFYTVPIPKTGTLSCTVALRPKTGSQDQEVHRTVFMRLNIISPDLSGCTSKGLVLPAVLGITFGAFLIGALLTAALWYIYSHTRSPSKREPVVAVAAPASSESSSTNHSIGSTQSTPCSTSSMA

Regarding “recombinant DSP-His protein (domain or fragment)”, the fold increase of the DSP-His signal on HEK293T cells with ectopic ENG against cells without came to 7.5 fold.
